15 molecules from patent publication US20060257938A1, “Method of screening for drugs that block ligand binding to a lipid binding protein” (priority 2005, published 2006) can be followed below.

Values joined by “and” are separate entries in the source; they are usually repeats but may differ in a detail not shown here. Equal entries are not always repeated.

Common to all, as to assay type: binding
Holding throughout (conditions): response relative to ADIFAB2

Assay [1] is described as follows: Probe fluorescence ratio response to palmitic acid relative to ADIFAB2. The method, boiled down: (§1)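 Fluorescently labeled rat intestinal FABP variants were read at two emission wavelengths, near the unbound maximum (about 420 to 480 nm) and the FFA-bound maximum (about 495 to 580 nm). R = Fλ1/Fλ2 after subtracting probe-free intensity; ΔR = R+agent − R0, normalized to ADIFAB2 (rI-FABP-L72A).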

Assay [2] in a line: Probe fluorescence ratio response to linoleic acid relative to ADIFAB2. The method, boiled down:
as §1

Assay [3] is described as follows: Probe fluorescence ratio response to linolenic acid relative to ADIFAB2. The method, boiled down:
as §1

The nature of assay [4]: Probe fluorescence ratio response to arachidonic acid relative to ADIFAB2. The method, boiled down: as §1
Assay [5] is described as follows: Probe fluorescence ratio response to oleic acid relative to ADIFAB2. Summed up: as §1

B1: 55R1, 72A (protein, listed as Rattus norvegicus)
chain: AFDGTWKVDRNENYEKFMEKMGINVVKRKLGAHDNLKLTITQEGNKFTVKESSNRRNIDVVFELGVDFAYSAADGTELTGTWTMEGNKLVGKFKRVDNGKELIAVREISGNELIQTYTYEGVEAKRIFKKE
modifications: PEPTIDE (1)...(131) wild-type rat intestinal fatty acid binding protein
As for B1, in assay [1], the “DR/DR PA” value was 0.30. Moreover, the “DR/DR LA” value in assay [2] was determined as 0.41. Also, the “DR/DR LNA” value in assay [3] stood at 0.37. The “DR/DR AA” value in assay [4] (Arachidonic acid) was determined as 0.40. Besides, the “DR/DR OA” value in assay [5] came to 0.39.

B2: 60M, 72A (protein, listed as Rattus norvegicus)
chain: AFDGTWKVDRNENYEKFMEKMGINVVKRKLGAHDNLKLTITQEGNKFTVKESSNFRNIDMVFELGVDFAYSAADGTELTGTWTMEGNKLVGKFKRVDNGKELIAVREISGNELIQTYTYEGVEAKRIFKKE
modifications: PEPTIDE (1)...(131) wild-type rat intestinal fatty acid binding protein
With B2, in assay [1], the “DR/DR PA” value is on record as 0.76. Besides, in assay [2], the “DR/DR LA” value came out at 1.01. Further, the “DR/DR LNA” value in assay [3] was determined as 0.93. Besides, the “DR/DR AA” value in assay [4] (Arachidonic acid) turned out to be 0.77. Moreover, the “DR/DR OA” value in assay [5] came to 0.91.

B3: 60N, 72A (protein, listed as Rattus norvegicus)
chain: AFDGTWKVDRNENYEKFMEKMGINVVKRKLGAHDNLKLTITQEGNKFTVKESSNFRNIDNVFELGVDFAYSAADGTELTGTWTMEGNKLVGKFKRVDNGKELIAVREISGNELIQTYTYEGVEAKRIFKKE
modifications: PEPTIDE (1)...(131) wild-type rat intestinal fatty acid binding protein
As for B3, the “DR/DR PA” value in assay [1] was 1.30. For the same molecule, in assay [2], the “DR/DR LA” value was found to be 1.57. Moreover, the “DR/DR LNA” value in assay [3] stood at 1.59. For the same molecule, the “DR/DR AA” value in assay [4] (Arachidonic acid) was found to be 1.24. Also, the “DR/DR OA” value in assay [5] came out at 1.54.

B4: 60I, 72A (protein, listed as Rattus norvegicus)
chain: AFDGTWKVDRNENYEKFMEKMGINVVKRKLGAHDNLKLTITQEGNKFTVKESSNFRNIDIVFELGVDFAYSAADGTELTGTWTMEGNKLVGKFKRVDNGKELIAVREISGNELIQTYTYEGVEAKRIFKKE
modifications: PEPTIDE (1)...(131) wild-type rat intestinal fatty acid binding protein
Regarding B4, the “DR/DR PA” value in assay [1] amounted to 1.52. Also, the “DR/DR LA” value in assay [2] is on record as 1.73. The “DR/DR LNA” value in assay [3] is 1.63 and 1.632. The “DR/DR AA” value in assay [4] (Arachidonic acid) came out at 1.54; in assay [4] (arachidonic acid), 1.539. Further, the “DR/DR OA” value in assay [5] is 1.72 and 1.723.

B5: 55W2, 72A (protein, listed as Rattus norvegicus)
chain: AFDGTWKVDRNENYEKFMEKMGINVVKRKLGAHDNLKLTITQEGNKFTVKESSNWRNIDVVFELGVDFAYSAADGTELTGTWTMEGNKLVGKFKRVDNGKELIAVREISGNELIQTYTYEGVEAKRIFKKE
modifications: PEPTIDE (1)...(131) wild-type rat intestinal fatty acid binding protein
For B5, the “DR/DR PA” value in assay [1] worked out at 0.63. Besides, the “DR/DR LA” value in assay [2] worked out at 0.79. In assay [3], the “DR/DR LNA” value was determined as 0.82. Also, in assay [4] (Arachidonic acid), the “DR/DR AA” value is 0.77. Moreover, the “DR/DR OA” value in assay [5] was 0.70.

B6: 60A, 72A (protein, listed as Rattus norvegicus)
chain: AFDGTWKVDRNENYEKFMEKMGINVVKRKLGAHDNLKLTITQEGNKFTVKESSNFRNIDAVFELGVDFAYSAADGTELTGTWTMEGNKLVGKFKRVDNGKELIAVREISGNELIQTYTYEGVEAKRIFKKE
modifications: PEPTIDE (1)...(131) wild-type rat intestinal fatty acid binding protein
For B6, the “DR/DR PA” value in assay [1] was 0.74 and 0.742. The “DR/DR LA” value in assay [2] is 0.98 and 0.977. Further, the “DR/DR LNA” value in assay [3] is 0.94 and 0.938. In addition, the “DR/DR AA” value amounted to 0.79 in assay [4] (Arachidonic acid) and 0.787 in assay [4] (arachidonic acid). In addition, in assay [5], the “DR/DR OA” value was 0.94 and 0.936.

B7: 55T1, 72A (protein, listed as Rattus norvegicus)
chain: AFDGTWKVDRNENYEKFMEKMGINVVKRKLGAHDNLKLTITQEGNKFTVKESSNTRNIDVVFELGVDFAYSAADGTELTGTWTMEGNKLVGKFKRVDNGKELIAVREISGNELIQTYTYEGVEAKRIFKKE
modifications: PEPTIDE (1)...(131) wild-type rat intestinal fatty acid binding protein
Turning to B7, the “DR/DR PA” value in assay [1] was 1.12. For the same molecule, the “DR/DR LA” value in assay [2] is recorded as 1.25. Also, in assay [3], the “DR/DR LNA” value came to 1.27. The “DR/DR AA” value in assay [4] (Arachidonic acid) was 1.26. The “DR/DR OA” value in assay [5] amounted to 1.28.

B8: 55Y3, 72A (protein, listed as Rattus norvegicus)
chain: AFDGTWKVDRNENYEKFMEKMGINVVKRKLGAHDNLKLTITQEGNKFTVKESSNYRNIDVVFELGVDFAYSAADGTELTGTWTMEGNKLVGKFKRVDNGKELIAVREISGNELIQTYTYEGVEAKRIFKKE
modifications: PEPTIDE (1)...(131) wild-type rat intestinal fatty acid binding protein
On to B8, for which, in assay [1], the “DR/DR PA” value is recorded as 0.25. Further, in assay [2], the “DR/DR LA” value amounted to 0.32. The “DR/DR LNA” value in assay [3] was 0.34. The “DR/DR AA” value in assay [4] (Arachidonic acid) was 0.47. For the same molecule, the “DR/DR OA” value in assay [5] came out at 0.33.

B9: 55S1, 72A (protein, listed as Rattus norvegicus)
chain: AFDGTWKVDRNENYEKFMEKMGINVVKRKLGAHDNLKLTITQEGNKFTVKESSNSRNIDVVFELGVDFAYSAADGTELTGTWTMEGNKLVGKFKRVDNGKELIAVREISGNELIQTYTYEGVEAKRIFKKE
modifications: PEPTIDE (1)...(131) wild-type rat intestinal fatty acid binding protein
As to B9, the “DR/DR PA” value in assay [1] is 0.41. In addition, the “DR/DR LA” value in assay [2] is on record as 0.42. For the same molecule, the “DR/DR LNA” value in assay [3] was found to be 0.43. The “DR/DR AA” value in assay [4] (Arachidonic acid) is recorded as 0.48. Also, the “DR/DR OA” value in assay [5] was 0.41.

B10: 60F, 72A (protein, listed as Rattus norvegicus)
chain: AFDGTWKVDRNENYEKFMEKMGINVVKRKLGAHDNLKLTITQEGNKFTVKESSNFRNIDFVFELGVDFAYSAADGTELTGTWTMEGNKLVGKFKRVDNGKELIAVREISGNELIQTYTYEGVEAKRIFKKE
modifications: PEPTIDE (1)...(131) wild-type rat intestinal fatty acid binding protein
For the molecule B10, the “DR/DR PA” value in assay [1] was 1.53 and 1.526. For the same molecule, the “DR/DR LA” value in assay [2] is 1.68 and 1.684. In assay [3], the “DR/DR LNA” value was 1.76 and 1.762. For the same molecule, the “DR/DR AA” value in assay [4] (Arachidonic acid) was 1.79; in assay [4] (arachidonic acid) it was 1.792. Also, the “DR/DR OA” value in assay [5] is 1.90 and 1.896.

B11: 60L, 72A (protein, listed as Rattus norvegicus)
chain: AFDGTWKVDRNENYEKFMEKMGINVVKRKLGAHDNLKLTITQEGNKFTVKESSNFRNIDLVFELGVDFAYSAADGTELTGTWTMEGNKLVGKFKRVDNGKELIAVREISGNELIQTYTYEGVEAKRIFKKE
modifications: PEPTIDE (1)...(131) wild-type rat intestinal fatty acid binding protein
Regarding B11, the “DR/DR PA” value in assay [1] is 1.10 and 1.095. Further, the “DR/DR LA” value in assay [2] is 1.29 and 1.285. Besides, in assay [3], the “DR/DR LNA” value is listed as 1.26. Moreover, the “DR/DR AA” value in assay [4] (Arachidonic acid) stood at 1.08; in assay [4] (arachidonic acid) it was 1.075. Moreover, the “DR/DR OA” value in assay [5] was 1.27 and 1.272.

B12: 60G, 72A (protein, listed as Rattus norvegicus)
chain: AFDGTWKVDRNENYEKFMEKMGINVVKRKLGAHDNLKLTITQEGNKFTVKESSNFRNIDGVFELGVDFAYSAADGTELTGTWTMEGNKLVGKFKRVDNGKELIAVREISGNELIQTYTYEGVEAKRIFKKE
modifications: PEPTIDE (1)...(131) wild-type rat intestinal fatty acid binding protein
Turning to B12, in assay [1], the “DR/DR PA” value is 0.19. Moreover, the “DR/DR LA” value in assay [2] is given as 0.25. The “DR/DR LNA” value in assay [3] was determined as 0.24. Further, in assay [4] (Arachidonic acid), the “DR/DR AA” value is 0.29. In addition, in assay [5], the “DR/DR OA” value came to 0.24.

B13: 60H, 72A (protein, listed as Rattus norvegicus)
chain: AFDGTWKVDRNENYEKFMEKMGINVVKRKLGAHDNLKLTITQEGNKFTVKESSNFRNIDHVFELGVDFAYSAADGTELTGTWTMEGNKLVGKFKRVDNGKELIAVREISGNELIQTYTYEGVEAKRIFKKE
modifications: PEPTIDE (1)...(131) wild-type rat intestinal fatty acid binding protein
B13: the “DR/DR PA” value in assay [1] was 0.12. For the same molecule, the “DR/DR LA” value in assay [2] came out at 0.17. Besides, the “DR/DR LNA” value in assay [3] came out at 0.18. The “DR/DR AA” value in assay [4] (Arachidonic acid) is given as 0.17. Moreover, the “DR/DR OA” value in assay [5] was found to be 0.17.

B14: 60C, 72A (protein, listed as Rattus norvegicus)
chain: AFDGTWKVDRNENYEKFMEKMGINVVKRKLGAHDNLKLTITQEGNKFTVKESSNFRNIDCVFELGVDFAYSAADGTELTGTWTMEGNKLVGKFKRVDNGKELIAVREISGNELIQTYTYEGVEAKRIFKKE
modifications: PEPTIDE (1)...(131) wild-type rat intestinal fatty acid binding protein
For B14, in assay [1], the “DR/DR PA” value was 1.04. Moreover, the “DR/DR LA” value in assay [2] is 1.33. Besides, the “DR/DR LNA” value in assay [3] turned out to be 1.36. Also, the “DR/DR AA” value in assay [4] (Arachidonic acid) stood at 1.30. For the same molecule, the “DR/DR OA” value in assay [5] was found to be 1.34.

B15: 60K, 72A (protein, listed as Rattus norvegicus)
chain: AFDGTWKVDRNENYEKFMEKMGINVVKRKLGAHDNLKLTITQEGNKFTVKESSNFRNIDKVFELGVDFAYSAADGTELTGTWTMEGNKLVGKFKRVDNGKELIAVREISGNELIQTYTYEGVEAKRIFKKE
modifications: PEPTIDE (1)...(131) wild-type rat intestinal fatty acid binding protein
On to B15, for which, in assay [1], the “DR/DR PA” value was 0.35 and 0.310. Also, in assay [2], the “DR/DR LA” value is 0.62 and 0.619. Also, the “DR/DR LNA” value in assay [3] was 0.57 and 0.582. Besides, the results for the “DR/DR AA” value in assay [4] (Arachidonic acid) and in assay [4] (arachidonic acid) were 0.46 and 0.461, respectively. Further, the “DR/DR OA” value in assay [5] is 0.60 and 0.626.
